In patent US20230045712A1 (AstraZeneca / MedImmune, published 2023):

Molecular target: T1, human endothelial lipase (EL) (human, UniProt Q9Y5X9 21-500, limits assumed)
T1 construct: The assay used endogenous EL in human plasma and a bought recombinant EL standard (Origene Technologies); also called human EL
T1 sequence: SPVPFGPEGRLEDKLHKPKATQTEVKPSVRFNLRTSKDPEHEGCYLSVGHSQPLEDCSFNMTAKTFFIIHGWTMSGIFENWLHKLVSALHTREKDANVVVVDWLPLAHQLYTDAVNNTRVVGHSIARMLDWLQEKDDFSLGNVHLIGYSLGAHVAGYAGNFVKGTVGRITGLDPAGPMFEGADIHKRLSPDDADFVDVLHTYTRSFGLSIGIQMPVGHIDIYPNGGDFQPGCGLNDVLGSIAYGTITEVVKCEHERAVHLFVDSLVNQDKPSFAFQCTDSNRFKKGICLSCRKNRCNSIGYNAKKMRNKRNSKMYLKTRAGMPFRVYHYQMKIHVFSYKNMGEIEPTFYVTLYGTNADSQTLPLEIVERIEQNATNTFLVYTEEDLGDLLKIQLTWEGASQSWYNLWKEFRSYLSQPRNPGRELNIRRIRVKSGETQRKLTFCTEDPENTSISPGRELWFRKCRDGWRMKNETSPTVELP
Test: MSD immunoassay of human plasma: plate coated with MEDI5884 captures EL, which is detected with a biotinylated EL detection antibody and streptavidin sulfo-TAG. Plasma came from subjects with stable coronary heart disease given three monthly subcutaneous doses of MEDI5884 or placebo. The loss of capturable EL after dosing is what the filing calls target engagement.
Procedure: In particular, the amount of hEL bound by MEDI5884 in human plasma was measured using the Meso Scale Diagnostics (MSD) based immunoassay platform. Briefly, wells on a 96-well plate were coated with MEDI5884 and incubated overnight at 4° C. The next day, wells were washed with PBS containing 0.05% Tween20 wash buffer and blocked with I-Block Buffer (Applied Biosystems) for one hour at room temperature. Plates were washed. Then recombinant EL protein standard (Origene Technologies) and human plasma samples were added to corresponding wells and incubated for one hour at room temperature. After washing, a biotinylated EL detection antibody (Origene Technologies) was added to corresponding wells and incubated for one hour at room temperature. Plates were washed, then a streptavidin, sulfo-TAG antibody (MSD) was added to corresponding wells and incubated for one hour at room temperature. After washing, wells were incubated with Read buffer (MSD). Plates were read using the MESO Sector S 600 plate reader, and data was analyzed using the MSD Discovery Workbench software analysis program.

B1: MEDI5884 (antibody, human IgG4 S228P, kappa, V domains shown)
VH: QVQLVQSGSELKKPGASVKVSCKASGYTFTNYALNWVRQAPGQGLEWMGWINTYSGVGTYAGEFKGRFVFSLDTSVSTAYLQISSLKAEDTAVYYCARRGFYGRRFFDVWGKGTTVTVSS
VL: DIQLTQSPSSLSASVGDRVTITCKASQSVDYDVDSYMHWYQQKPGKAPKLLIYAASNLASGVPSRFSGSGSGTDFTFTISSLQPEDIATYYCQQTIEDPPTFGGGTKVEIKR
notes: Humanized anti-EL antibody, human IgG4P heavy chain and kappa light chain; It was coated on the plate as the capture reagent in the target engagement immunoassay; also called S6F1-4P
binding result: binds
